PMC4140777

Legend:
[1] = molecular target: T1, β-bungarotoxin (β-BuTx) (Bungarus multicinctus) (UniProt P00618+P00987); experiment: fluorescence anisotropy; settings: 20 mM HEPES pH 7.4, 150 mM NaCl, 5 mM KCl, 2 mM MgCl2, 2 mM CaCl2, room temperature
[2] = molecular target: T1, β-bungarotoxin (β-BuTx) (Bungarus multicinctus); experiment: filter binding; settings: 20 mM HEPES pH 7.4, 150 mM NaCl, 5 mM KCl, 2 mM MgCl2, 2 mM CaCl2, room temperature

T1 sequence (P00618 26-145, chain 1 of 2): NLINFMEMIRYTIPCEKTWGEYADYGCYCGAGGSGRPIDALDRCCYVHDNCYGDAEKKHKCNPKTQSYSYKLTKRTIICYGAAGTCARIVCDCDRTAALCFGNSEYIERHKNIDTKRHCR
T1 sequence (P00987 25-85, chain 2 of 2): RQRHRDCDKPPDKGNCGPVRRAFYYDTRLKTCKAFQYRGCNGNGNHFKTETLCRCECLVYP

Row | Sequence | Kd [1] | binding signal [2]
1 | AGCAGCACAGAGGTCAGATGATTAGTCATGTTTGTTTGTCTGGCTTTTTGGGTTTGTGCAGTATTATGAACCCTATGCGTGCTACCGTGAA [βB-20] | 83.8 nM | 
2 | AGCAGCACAGAGGTCAGATGGCAATGCACCTTTGTCTCTTATAGTTTATTTTTTGCCTTCCTATGCGTGCTACCGTGAA [βB-32] | 995 nM | 
3 | AGCAGCACAGAGGTCAGATGGTTTTCCCCTTGTCGCTTTTGGTTCGTTCTGCCTCTATCTCCTATGCGTGCTACCGTGAA [βB-1] | 65.9 nM | 45 % bound
4 | AGCAGCACAGAGGTCAGATGTTTGGTGTGGATCCTGAACATTTATATTCTTTCGTTTTTTCCTATGCGTGCTACCGTGAA [βB-19] | 530 nM | 
